Measured values taken from the Human Domainome abundance scans (Beltran et al. 2025).

B1: RUN and FYVE domain-containing protein 1, residues 639 to 698; numbered along this chain, Q96T51 (parent)
chain: WLKDDEATHCRQCEKEFSISRRKHHCRNCGHIFCNTCSSNELALPSYPKPVRVCDSCHTL

Variants of: B1
Experiment: abundance fitness (aPCA) (normalised: wild type 0, dead -1); higher = more abundant; growth selection in yeast, the domain comes from the species named
Settings: Homo sapiens

Abundance fitness of substitutions, site by site:
E6: R -0.336, Q -0.203, N -0.121, I 0.029, C 0.009, V -0.254, M -0.316, K 0.126, H -0.185, S -0.165, W -0.388, Y -0.191, T -0.014, L -0.425, A -0.085, F -0.295, P -0.236, G 0.001, D -0.078
Q12: M -0.27, P -1.17, I -0.068, D -0.051, S -0.412, K -0.449, L -0.298, H -0.27, R -0.303, N -0.106, E -0.225, A -0.171, Y -0.279, W -0.69, F -0.458, T -0.565, C 0.039, G 0.208
A7: V -0.108, R -0.031, S 0.092, L -0.234, T 0.014, K -0.384, N -0.204, Q 0.04, D -0.039, G -0.09, F -0.028, P -0.114, E 0.017, H -0.176, M -0.302, C -0.082, I -0.008, W -0.154, Y -0.092
S20: F -0.009, K -0.018, T 0.069, P -0.061, W 0.005, Q 0.138, V -0.031, I 0.028, D 0.13, L -0.147, H -0.108, Y -0.195, E 0.197, C -0.369, A 0.068
I19: P -0.034, N -0.001, C -1.15, A -0.177, K 0.073, L -0.038, Q 0.094, F -0.136, Y -0.341, S -0.048, T 0.095, W -0.846, R -0.065, M -0.006, H -0.036, D -0.014, E 0.228, V -0.102
C10: F -0.776, V -0.815, G -0.849, M -1.02, E -0.687, I -0.636, W -0.519, T -0.711, Y -0.72, A -0.765, Q -0.678, N -0.837, L -0.74, K -0.766, H -0.665, R -0.843
H9: R -0.23, A 0.136, E -0.418, W -0.532, F -0.135, T -0.221, K -0.09, I -0.216, M -0.108, G -0.22, Q -0.248, S -0.115, P -0.822, Y -0.357, N -0.046
K23: P -0.494, S -0.189, F -0.362, L -0.433, G -0.034, M -0.137, T -0.204, D -0.315, H -0.326, Y -0.575, V -0.257, W -0.243, E -0.165, I -0.207, C -0.176, R -0.069, N -0.491, Q -0.261
H24: M -0.148, L -0.458, C -0.135, F -0.351, E 0.051, A -0.266, I -0.443, G -0.515, D -0.251, N -0.256
T8: Y -0.349, Q 0.008, G -0.062, M 0.022, H 0.025, E -0.085, I 0.047, S -0.016, R -0.009, L -0.009, P -0.187, K -0.026, V -0.269, C -0.325, A -0.204, D -0.087
R11: E 0.079, Q 0.05, F -0.023, N -0.093, D 0.057, M 0.226, K 0.229, Y 0.121, S 0.203, A 0.227, T 0.044, G 0.127, W 0.224, L 0.161, V -0.155, P -0.03, H 0.044
E14: V -0.41, L -0.377, I -0.167, K -0.439, M -0.212, A -0.08, F -0.204, P -0.856, N -0.459, W -0.24, D -0.083, Q -0.113, C -0.243, G 0.006, R -0.431, S -0.168, H -0.127
K15: W -0.449, L -0.188, N -0.058, D -0.233, P -0.999, R -0.053, E -0.009, I -0.143, C -0.196, Q -0.082, M -0.373, G -0.088, H -0.074, S -0.098, V -0.359, Y -0.191, T -0.154, A -0.527
F17: L -0.218, P -0.624, V -0.662, H -0.65, Q -0.765, K -0.676, A -0.927, Y -0.769, W -0.381, I -0.397, M -0.571, T -0.574, R -0.677, E -0.68, S -0.709, G -0.793, D -0.467, N -1.02
C13: D -0.874, P -0.984, I -1.01, G -0.684, M -0.943, L -0.913, F -0.707, R -0.802, T -0.83, W -0.82, N -0.712, V -0.951, K -1.07, S -0.899, E -0.738, Q -0.806, H -0.975
S18: F -0.352, L -0.423, Q -0.256, P -0.398, G -0.049, A -0.33, W -0.322, V -0.247, T 0.05, N -0.12, K -0.087, C 0.007, I -0.144, H -0.408, D 0.06, Y -0.501, M -0.23
E16: Y -0.349, P -0.195, N -0.029, D -0.123, C -0.29, K -0.387, W -0.638, S -0.179, G -0.18, F -0.245, A -0.286, L -0.314, H -0.089, R -0.412, V -0.282, Q -0.329, T -0.339
R21: I -0.227, T 0.13, Y -0.801, N -0.711, F -0.265, Q -0.069, D -1.25, H -0.434, V -0.054, C -1.14, L -0.195, W -1.06, S -0.355, M -0.239, P -0.503, K -0.184, A -0.04, G -0.278
D5: H -0.426, G -0.388, V -0.313, L -0.547, Q -0.708, S -0.209, I -0.341, R -0.57, T -0.178, W -0.531, P -0.537, Y -0.258, N 0.004, M 0.058, K -0.069
R22: Q -0.1, E 0.014, M 0.109, D -0.141, T -0.066, L -0.098, W -0.18, P -0.303, N -0.24, A -0.102, Y -0.356, I -0.1, C -0.494, H -0.854, S -0.32, V 0
